{
  "source": "patent US20170089928A1",
  "about": "(SYSMEX, published 2017)",
  "binders": {"B1": {"name": "α-endorphin (peptide)", "peptide": "YGGFMTSEKSQTPLVT", "notes": "Neutral comparative peptide, Peptide Institute, Inc; also called neutral peptide, α-endorphin"}, "B2": {"name": "fragment of ITIH4 (positions 611 to 642) (peptide)", "peptide": "GESRNRNVHSGSTFFKYYLQGAKIPKPEASFS", "notes": "also called ITIH4 (611-642); ITIH4 fragment"}, "B3": {"name": "fragment of kininogen (positions 439 to 457) (peptide)", "peptide": "HNLGHGHKHERDQGHGHQR", "notes": "also called Kininogen (439-457); kininogen fragment"}},
  "key": {"[1]": {"biological_target": "T1, Heat-denatured BSA (bovine serum albumin autoclaved for 15 minutes) (bovine, UniProt P02769 25-607)", "T1 construct": "also called heat-denatured BSA solution; reagent for detection", "T1 sequence (P02769 25-607 limits assumed)": "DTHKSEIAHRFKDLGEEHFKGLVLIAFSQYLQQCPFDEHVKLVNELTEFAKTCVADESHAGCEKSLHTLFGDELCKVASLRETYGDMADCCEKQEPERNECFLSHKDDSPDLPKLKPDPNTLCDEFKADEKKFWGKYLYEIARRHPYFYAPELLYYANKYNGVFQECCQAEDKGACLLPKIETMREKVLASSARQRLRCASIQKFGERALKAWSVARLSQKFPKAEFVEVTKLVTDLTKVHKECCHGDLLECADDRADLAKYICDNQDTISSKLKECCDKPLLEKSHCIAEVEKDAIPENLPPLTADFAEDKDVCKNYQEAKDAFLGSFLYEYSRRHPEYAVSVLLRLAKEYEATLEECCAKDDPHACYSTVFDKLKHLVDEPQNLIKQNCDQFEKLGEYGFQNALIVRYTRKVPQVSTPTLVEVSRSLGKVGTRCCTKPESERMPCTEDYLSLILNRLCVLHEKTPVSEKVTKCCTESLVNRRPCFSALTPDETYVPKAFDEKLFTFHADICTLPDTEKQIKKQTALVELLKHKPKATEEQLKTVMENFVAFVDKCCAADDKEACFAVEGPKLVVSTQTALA", "experiment": "turbidity (OD550), heat-denatured BSA mixed with rising concentration of α-endorphin", "description": "In the preparation, the sample was mixed so as to obtain a final concentration of the respective peptides in the mixed solutions of 0 to 150 μM."}, "[2]": {"biological_target": "T1, Heat-denatured BSA (bovine serum …)", "experiment": "turbidity (OD550), heat-denatured BSA mixed with rising concentration of C3f"}, "[3]": {"biological_target": "T1, Heat-denatured BSA (bovine serum …)", "experiment": "turbidity (OD550), Hill plot analysis", "description": "(§1) The Kd value and Hill coefficient were calculated for the respective samples."}, "[4]": {"biological_target": "T1, Heat-denatured BSA (bovine serum …)", "experiment": "turbidity (OD550), heat-denatured BSA mixed with rising concentration of the Factor XIII peptide"}, "[5]": {"biological_target": "T1, Heat-denatured BSA (bovine serum …)", "experiment": "turbidity (OD550), heat-denatured BSA mixed with rising concentration of the kininogen fragment", "description": "In the preparation, the sample was mixed so as to obtain a final concentration of the respective peptides in the mixed solutions of 0 to 80 μM.\nas §1"}, "[6]": {"biological_target": "T1, Heat-denatured BSA (bovine serum …)", "experiment": "turbidity (OD550), heat-denatured BSA mixed with rising concentration of the Fibrinogen α peptide"}, "[7]": {"biological_target": "T2, Heat-denatured ovoalbumin (OA) (UniProt P01012 2-386)", "T2 construct": "1.0 w/v % OA, pH adjusted to 5 to 7 with sodium hydroxide, autoclaved at 115 C for 15 min; also called Heat-denatured OA; denatured OA", "T2 sequence (looked up)": "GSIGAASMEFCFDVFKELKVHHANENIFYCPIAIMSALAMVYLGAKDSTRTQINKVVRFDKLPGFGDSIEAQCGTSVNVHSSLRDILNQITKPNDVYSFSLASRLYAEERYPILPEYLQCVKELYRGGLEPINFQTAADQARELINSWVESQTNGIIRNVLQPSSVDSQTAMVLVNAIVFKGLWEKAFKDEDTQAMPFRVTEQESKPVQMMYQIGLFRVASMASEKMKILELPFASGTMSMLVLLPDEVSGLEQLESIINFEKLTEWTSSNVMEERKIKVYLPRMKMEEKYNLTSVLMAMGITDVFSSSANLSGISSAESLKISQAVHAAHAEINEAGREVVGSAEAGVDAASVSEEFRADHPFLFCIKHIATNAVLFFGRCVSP", "experiment": "turbidity (OD550), Hill plot analysis", "description": "(§2) In the preparation, the sample was mixed so as to obtain a final concentration of the partial ACTH peptide in the mixed solution of 0 to 80 μM.\n(§3) The thus-prepared mixed solutions were measured for absorbance at the wavelength of 550 nm (OD550) with a spectrophotometer UV-2500PC (Shimadzu Corporation)."}, "[8]": {"biological_target": "T1, Heat-denatured BSA (bovine serum …)", "experiment": "turbidity (OD550) against peptide concentration, Hill plot analysis", "description": "(§4) In this preparation, the sample was mixed so as to obtain a final concentration of the partial ACTH peptide in the mixed solution of 0 to 150 μM.\n(§5) The thus-prepared mixed solutions were measured for absorbance at the wavelength of 550 nm (OD550) in a spectrophotometer UV-2500PC (Shimadzu Corporation)."}, "[9]": {"biological_target": "T3, Non-denatured BSA (bovine, UniProt P02769 25-607)", "T3 construct": "BSA solution that was not heated; also called non-denatured BSA solution; BSA heat-denatured for 0 min", "T3 sequence (P02769 25-607 limits assumed)": "as the sequence (P02769 25-607 limits assumed) above", "experiment": "turbidity (OD550) against peptide concentration, Hill plot analysis", "description": "as §4, §5"}, "[10]": {"biological_target": "T3, Non-denatured BSA", "experiment": "turbidity (OD550), Hill plot analysis; heat denaturation period 0 min", "description": "(§6) The Kd value and Hill coefficient of BSA at respective heat denaturation periods were calculated."}, "[11]": {"biological_target": "T4, BSA heat-denatured for 5 minutes (bovine, UniProt P02769 25-607)", "T4 construct": "Autoclaved at 110 C for 5 min; also called heat denaturation period 5 min", "T4 sequence (P02769 25-607 limits assumed)": "as the sequence (P02769 25-607 limits assumed) above", "experiment": "turbidity (OD550), Hill plot analysis; heat denaturation period 5 min", "description": "as §6"}, "[12]": {"biological_target": "T1, Heat-denatured BSA (bovine serum …)", "experiment": "turbidity (OD550), Hill plot analysis; control solution without serum", "description": "(§7) In the preparation, the serum-based sample was mixed so as to adjust a final concentration of the partial ACTH peptide of to 0 to 80 μM and adjust a final concentration of serum of to an equivalent to 100-fold dilution in the mixed solution. For a control, a mixed solution was also prepared without serum (hereinafter referred to as “control solution”).\nas §3"}, "[13]": {"biological_target": "T1, Heat-denatured BSA (bovine serum …)", "experiment": "turbidity (OD550), Hill plot analysis; heat denaturation period 15 min", "description": "as §6"}, "[14]": {"biological_target": "T5, BSA heat-denatured for 60 minutes (bovine, UniProt P02769 25-607)", "T5 construct": "Autoclaved at 110 C for 60 min; also called heat denaturation period 60 min", "T5 sequence (P02769 25-607 limits assumed)": "as the sequence (P02769 25-607 limits assumed) above", "experiment": "turbidity (OD550), Hill plot analysis; heat denaturation period 60 min", "description": "as §6"}, "[15]": {"biological_target": "T1, Heat-denatured BSA (bovine serum …)", "experiment": "turbidity (OD550), Hill plot analysis; table row for nucleic acid 'No'", "description": "(§8) A comparative mixed solution was prepared by adding to the mixed solution a salmon sperm DNA (trade name: Sonicated Salmon Sperm DNA, BioDynamics Laboratory Inc.) as nucleic acid (final concentration of nucleic acid: 10 μM).\n(§9) The Kd value and Hill coefficient were calculated for the mixed solutions."}, "[16]": {"biological_target": "T6, BSA heat-denatured for 120 minutes (bovine, UniProt P02769 25-607)", "T6 construct": "Autoclaved at 110 C for 120 min; also called heat denaturation period 120 min", "T6 sequence (P02769 25-607 limits assumed)": "as the sequence (P02769 25-607 limits assumed) above", "experiment": "turbidity (OD550), Hill plot analysis; heat denaturation period 120 min", "description": "as §6"}, "[17]": {"biological_target": "T1, Heat-denatured BSA (bovine serum …)", "experiment": "turbidity (OD550), Hill fit with competitive inhibition term; serum at 100-fold dilution", "description": "as §7, §3"}, "[18]": {"biological_target": "T4, BSA heat-denatured for 5 minutes", "experiment": "turbidity (OD550), BSA heat-denatured for 5 min mixed with rising concentration of the partial ACTH peptide", "description": "as §6"}, "[19]": {"biological_target": "T1, Heat-denatured BSA (bovine serum …)", "experiment": "turbidity (OD550), BSA heat-denatured for 15 min mixed with rising concentration of the partial ACTH peptide", "description": "as §6"}, "[20]": {"biological_target": "T5, BSA heat-denatured for 60 minutes", "experiment": "turbidity (OD550), BSA heat-denatured for 60 min mixed with rising concentration of the partial ACTH peptide", "description": "as §6"}, "[21]": {"biological_target": "T6, BSA heat-denatured for 120 minutes", "experiment": "turbidity (OD550), BSA heat-denatured for 120 min mixed with rising concentration of the partial ACTH peptide", "description": "as §6"}, "[22]": {"biological_target": "T7, Heat-denatured human serum albumin (HSA) (human, UniProt P02768 25-609)", "T7 construct": "1.0 w/v % HSA in ultrapure water, autoclaved at 115 C for 15 min; also called Heat-denatured HSA; denatured HSA", "experiment": "turbidity (OD550), heat-denatured HSA (0.2 w/v %) mixed with rising concentration of the partial ACTH peptide", "description": "as §2, §3"}, "[23]": {"biological_target": "T1, Heat-denatured BSA (bovine serum …)", "experiment": "turbidity (OD550), Hill plot analysis; table row for nucleic acid 'Yes' (salmon sperm DNA, 10 µM); with nucleic acid (Yes)", "description": "as §8, §9"}, "[24]": {"biological_target": "T1, Heat-denatured BSA (bovine serum …)", "experiment": "turbidity (OD550), heat-denatured BSA mixed with rising peptide concentration; fitted curve of FIG. 1 superimposed"}, "[25]": {"biological_target": "T1, Heat-denatured BSA (bovine serum …)", "experiment": "turbidity (OD550) of mixtures of heat-denatured BSA (0.2 w/v %) with rising concentration of the partial ACTH peptide", "description": "as §4, §5"}, "[26]": {"biological_target": "T1, Heat-denatured BSA (bovine serum …)", "experiment": "turbidity (OD550), heat-denatured BSA mixed with rising concentration of the partial ACTH peptide, without nucleic acid", "description": "as §8, §9"}, "[27]": {"biological_target": "T1, Heat-denatured BSA (bovine serum …)", "experiment": "turbidity (OD550), heat-denatured BSA mixed with rising concentration of the partial ACTH peptide, with salmon sperm DNA (10 µM)", "description": "as §8, §9"}},
  "data": [
    {"binder": "B1", "values": [
      {"measurement": "binding result", "setting": "[1]", "value": "no binding (tested: 150 µM)"}
    ]},
    {"binder": "HWESASLL (Acidic peptide from Biologica Co)", "note": "[C3f (acidic peptide)]", "values": [
      {"measurement": "binding result", "setting": "[2]", "value": "no binding (tested: 80 µM)"}
    ]},
    {"binder": "B2", "values": [
      {"measurement": "Kd", "setting": "[3]", "value": 70, "unit": "µM"}
    ]},
    {"binder": "AVPPNNSNAAEDDLPTVELQGVVPR", "note": "[Factor XIII (acidic peptide)]", "values": [
      {"measurement": "binding result", "setting": "[4]", "value": "no binding (tested: 80 µM)"}
    ]},
    {"binder": "B3", "values": [
      {"measurement": "Kd", "setting": "[3]", "value": 45, "unit": "µM"},
      {"measurement": "EC50 (read off the curve)", "setting": "[5]", "value": "~40", "unit": "µM"}
    ]},
    {"binder": "DEAGSEADHEGTHSTKRGHAKSRPV", "note": "[Fibrinogen α (neutral peptide)]", "values": [
      {"measurement": "binding result", "setting": "[6]", "value": "no binding (tested: 80 µM)"}
    ]},
    {"binder": "SYSMEHFRWGKPVGKKRRPVKVYP (also called basic peptide of interest)", "note": "[partial ACTH peptide consisting of the amino acids of positions 1 to 24 of ACTH]", "values": [
      {"measurement": "Kd", "setting": "[7]", "value": 67, "unit": "µM"},
      {"measurement": "Kd", "setting": "[8]", "value": 30, "unit": "µM"},
      {"measurement": "Kd", "setting": "[9]", "value": 290, "unit": "µM"},
      {"measurement": "Kd", "setting": "[10]", "value": 290, "unit": "µM"},
      {"measurement": "Kd", "setting": "[11]", "value": 33, "unit": "µM"},
      {"measurement": "Kd", "setting": "[12]", "value": 25, "unit": "µM"},
      {"measurement": "Kd", "setting": "[13]", "value": 30, "unit": "µM"},
      {"measurement": "Kd", "setting": "[14]", "value": 28, "unit": "µM"},
      {"measurement": "Kd", "setting": "[15]", "value": 40, "unit": "µM"},
      {"measurement": "Kd", "setting": "[16]", "value": 33, "unit": "µM"},
      {"measurement": "Kd", "setting": "[17]", "value": 29, "unit": "µM"},
      {"measurement": "EC50 (read off the curve)", "setting": "[18]", "value": "~30", "unit": "µM"},
      {"measurement": "EC50 (read off the curve)", "setting": "[19]", "value": "~30", "unit": "µM"},
      {"measurement": "EC50 (read off the curve)", "setting": "[20]", "value": "~30", "unit": "µM"},
      {"measurement": "EC50 (read off the curve)", "setting": "[21]", "value": "~30", "unit": "µM"},
      {"measurement": "EC50 (read off the curve)", "setting": "[22]", "value": "40 to 50", "unit": "µM"},
      {"measurement": "Kd", "setting": "[23]", "value": 30, "unit": "µM"},
      {"measurement": "EC50 (read off the curve)", "setting": "[24]", "value": "20 to 30", "unit": "µM"},
      {"measurement": "EC50 (read off the curve)", "setting": "[25]", "value": "~30", "unit": "µM"},
      {"measurement": "EC50 (read off the curve)", "setting": "[26]", "value": "~30", "unit": "µM"},
      {"measurement": "EC50 (read off the curve)", "setting": "[27]", "value": "~40", "unit": "µM"}
    ]}
  ]
}
